The record followed here is patent CN111434681A.

“And” between values parts separate entries of the source, which are not always exact repeats. Equal entries are not always repeated.

Experiment [1] concerns the target H7N9病毒的HA蛋白(购自ACROBiosystems) (H7N9 influenza virus).
Experiment [2] has the same target. The source holds these as a separate data set.
For experiment [3], the target named is H7N9病毒 A/Anhui/1/2013 (血凝素HA on virus) (influenza A virus A/Anhui/1/2013 (H7N9)). Kind of experiment: cell-based or functional assay.

B1: 抗H7N9全人源单克隆抗体6J15 (antibody, V domains shown)
VH: QVQLVESGAEVKKPGASVKVSCKASGYNIFTSYDINWVRQATGQGLEWMGWMNPDSGDTGFAQKFQGRVTMTRNTSITTAYMELSSLTSEDTAVYYCATGNADCSGSCYNWFDPWGQGTLVTVSS
VL: SSELTQDPAVSVALGQTVRITCQGDRLRSTYYASWYQQKPGQAPVLVIYGKNNRPSGIPDRFSGSSSGNTASLTITGAQAEDEADYYCNSRDTSGYHLVFGGGTKLTVLV
In the case of B1, the 450nm (OD) in experiment [1] is 2.25 OD 450nm and 1.85 OD 450nm and 1.78 OD 450nm. Besides, the Kd in experiment [2] amounted to 2.06 nM. The molecule also came in with a 微量中和-ELISA实验 (MDCK cells, 100TCID50 virus), IC50 in experiment [3] of 0.35 µg/mL.

The Kd is a measure of binding affinity in units of concentration. A lower Kd goes with tighter binding.
